Measured values published in article PMC10786891, “Massively parallel profiling of RNA-targeting CRISPR-Cas13d”.

Molecular target: T1, EsCas13d, nuclease-dead (Eubacterium siraeum, UniProt B0MS50, R295A;H300A;R849A;H854A)
T1 sequence: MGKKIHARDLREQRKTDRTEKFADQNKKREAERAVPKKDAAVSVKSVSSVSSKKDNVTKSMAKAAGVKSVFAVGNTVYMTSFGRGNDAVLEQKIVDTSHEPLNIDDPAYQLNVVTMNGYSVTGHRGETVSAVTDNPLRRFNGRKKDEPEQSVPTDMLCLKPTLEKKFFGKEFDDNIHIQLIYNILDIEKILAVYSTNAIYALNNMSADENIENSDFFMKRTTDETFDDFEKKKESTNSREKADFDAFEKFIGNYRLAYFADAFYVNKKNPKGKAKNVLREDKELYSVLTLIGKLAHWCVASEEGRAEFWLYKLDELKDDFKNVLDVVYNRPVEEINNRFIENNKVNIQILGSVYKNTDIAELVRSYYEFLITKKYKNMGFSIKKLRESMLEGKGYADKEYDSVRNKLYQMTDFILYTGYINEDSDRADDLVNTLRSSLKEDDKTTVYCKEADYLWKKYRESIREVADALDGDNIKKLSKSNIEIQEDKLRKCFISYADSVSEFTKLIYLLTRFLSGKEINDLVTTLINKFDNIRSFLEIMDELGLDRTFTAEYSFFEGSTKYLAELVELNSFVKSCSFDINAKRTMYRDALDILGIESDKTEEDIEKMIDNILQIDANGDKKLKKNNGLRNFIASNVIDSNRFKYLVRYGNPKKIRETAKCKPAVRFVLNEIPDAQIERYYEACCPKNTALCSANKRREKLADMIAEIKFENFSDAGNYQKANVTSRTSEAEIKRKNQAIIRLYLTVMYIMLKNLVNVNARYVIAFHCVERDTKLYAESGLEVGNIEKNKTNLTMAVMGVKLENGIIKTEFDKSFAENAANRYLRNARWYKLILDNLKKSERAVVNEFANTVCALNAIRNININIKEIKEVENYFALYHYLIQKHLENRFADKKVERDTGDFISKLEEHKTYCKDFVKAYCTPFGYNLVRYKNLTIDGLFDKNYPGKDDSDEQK
Assay: crRNA (strand 1, pre-loaded); Mg2+; 40 mM Tris-HCl pH 7.5, 150 mM NaCl, 6 mM MgCl2, 1 mM DTT, 0.1% Tween-20, 0.2 mg/ml BSA; 25 C; 10 min per concentration, then washed
Conditions: tags: His6-TwinStrep-SUMO cleaved; N-terminal SNAP kept (SNAP-Surface 488); label: 3' end held by stalled T7 RNA polymerase

Binder | Kd
target 1 C2G,G12A (mixed) RNA 1: CACCCGUGCAAAAAUGCAGGGGUCUAAAACUGAGCGGAUAACCUCUCUAUGG RNA 2: GGGAAUGGAUCCACAUCUACGAAUUCGUACCAUAGAGAGAUUAUCCGCUGACCGAGAUCGGAAGAGCACACGU | 3.51 ± 0.18 nM
target 1 U19A,C22U (mixed) RNA 1: CACCCGUGCAAAAAUGCAGGGGUCUAAAACUGAGCGGAUAACCUCUCUAUGG RNA 2: GGGAAUGGAUCCACAUCUACGAAUUCGUAUCAAAGAGAGGUUAUCCGCUCACCGAGAUCGGAAGAGCACACGU | 70 ± 19 nM
target 1 insU 3' of 12,insG 3' of 11 (mixed) RNA 1: CACCCGUGCAAAAAUGCAGGGGUCUAAAACUGAGCGGAUAACCUCUCUAUGG RNA 2: GGGAAUGGAUCCACAUCUACGAAUUCGUACCAUAGAGAGGUUGUAUCCGCUCACCGAGAUCGGAAGAGCACACGU | 10.8 ± 0.7 nM
target 1 insU 3' of 13,insA 3' of 4 (mixed) RNA 1: CACCCGUGCAAAAAUGCAGGGGUCUAAAACUGAGCGGAUAACCUCUCUAUGG RNA 2: GGGAAUGGAUCCACAUCUACGAAUUCGUACCAUAGAGAGUGUUAUCCGCAUCACCGAGAUCGGAAGAGCACACGU | 13.5 ± 1.5 nM
target 1 insU 3' of 6,insG 3' of 2 (mixed) RNA 1: CACCCGUGCAAAAAUGCAGGGGUCUAAAACUGAGCGGAUAACCUCUCUAUGG RNA 2: GGGAAUGGAUCCACAUCUACGAAUUCGUACCAUAGAGAGGUUAUCCUGCUCGACCGAGAUCGGAAGAGCACACGU | 15.3 ± 1 nM
target 1 C2G,C21U (mixed) RNA 1: CACCCGUGCAAAAAUGCAGGGGUCUAAAACUGAGCGGAUAACCUCUCUAUGG RNA 2: GGGAAUGGAUCCACAUCUACGAAUUCGUACUAUAGAGAGGUUAUCCGCUGACCGAGAUCGGAAGAGCACACGU | 11.7 ± 1.6 nM
target 1 insG 3' of 10,insA 3' of 5 (mixed) RNA 1: CACCCGUGCAAAAAUGCAGGGGUCUAAAACUGAGCGGAUAACCUCUCUAUGG RNA 2: GGGAAUGGAUCCACAUCUACGAAUUCGUACCAUAGAGAGGUUGAUCCGACUCACCGAGAUCGGAAGAGCACACGU | 30.5 ± 3.4 nM
target 1 insA 3' of 13,insC 3' of 13 (mixed) RNA 1: CACCCGUGCAAAAAUGCAGGGGUCUAAAACUGAGCGGAUAACCUCUCUAUGG RNA 2: GGGAAUGGAUCCACAUCUACGAAUUCGUACCAUAGAGAGACGUUAUCCGCUCACCGAGAUCGGAAGAGCACACGU | 23 ± 5 nM
target 1 insU 3' of 4,insG 3' of 1 (mixed) RNA 1: CACCCGUGCAAAAAUGCAGGGGUCUAAAACUGAGCGGAUAACCUCUCUAUGG RNA 2: GGGAAUGGAUCCACAUCUACGAAUUCGUACCAUAGAGAGGUUAUCCGCUUCAGCCGAGAUCGGAAGAGCACACGU | 6.8 ± 0.4 nM
target 1 insU 3' of 18,insU 3' of 14 (mixed) RNA 1: CACCCGUGCAAAAAUGCAGGGGUCUAAAACUGAGCGGAUAACCUCUCUAUGG RNA 2: GGGAAUGGAUCCACAUCUACGAAUUCGUACCAUAUGAGAUGGUUAUCCGCUCACCGAGAUCGGAAGAGCACACGU | 73 ± 12 nM
target 1 insU 3' of 9,insA 3' of 5 (mixed) RNA 1: CACCCGUGCAAAAAUGCAGGGGUCUAAAACUGAGCGGAUAACCUCUCUAUGG RNA 2: GGGAAUGGAUCCACAUCUACGAAUUCGUACCAUAGAGAGGUUAUUCCGACUCACCGAGAUCGGAAGAGCACACGU | 6.6 ± 0.8 nM
target 1 insG 3' of 7,insU 3' of 7 (mixed) RNA 1: CACCCGUGCAAAAAUGCAGGGGUCUAAAACUGAGCGGAUAACCUCUCUAUGG RNA 2: GGGAAUGGAUCCACAUCUACGAAUUCGUACCAUAGAGAGGUUAUCGUCGCUCACCGAGAUCGGAAGAGCACACGU | 9.26 ± 0.34 nM
target 1 insG 3' of 22,insA 3' of 10 (mixed) RNA 1: CACCCGUGCAAAAAUGCAGGGGUCUAAAACUGAGCGGAUAACCUCUCUAUGG RNA 2: GGGAAUGGAUCCACAUCUACGAAUUCGUACGCAUAGAGAGGUUAAUCCGCUCACCGAGAUCGGAAGAGCACACGU | 25 ± 1.5 nM
target 1 G5C,A20U (mixed) RNA 1: CACCCGUGCAAAAAUGCAGGGGUCUAAAACUGAGCGGAUAACCUCUCUAUGG RNA 2: GGGAAUGGAUCCACAUCUACGAAUUCGUACCUUAGAGAGGUUAUCCCCUCACCGAGAUCGGAAGAGCACACGU | 63 ± 12 nM
target 1 insC 3' of 15,insC 3' of 13 (mixed) RNA 1: CACCCGUGCAAAAAUGCAGGGGUCUAAAACUGAGCGGAUAACCUCUCUAUGG RNA 2: GGGAAUGGAUCCACAUCUACGAAUUCGUACCAUAGAGCAGCGUUAUCCGCUCACCGAGAUCGGAAGAGCACACGU | 34 ± 4 nM
target 1 insA 3' of 12,insC 3' of 1 (mixed) RNA 1: CACCCGUGCAAAAAUGCAGGGGUCUAAAACUGAGCGGAUAACCUCUCUAUGG RNA 2: GGGAAUGGAUCCACAUCUACGAAUUCGUACCAUAGAGAGGAUUAUCCGCUCACCCGAGAUCGGAAGAGCACACGU | 27.4 ± 2.6 nM
target 1 insA 3' of 12,insA 3' of 2 (mixed) RNA 1: CACCCGUGCAAAAAUGCAGGGGUCUAAAACUGAGCGGAUAACCUCUCUAUGG RNA 2: GGGAAUGGAUCCACAUCUACGAAUUCGUACCAUAGAGAGGAUUAUCCGCUCAACCGAGAUCGGAAGAGCACACGU | 34.2 ± 3.1 nM
target 1 A18C,C22U (mixed) RNA 1: CACCCGUGCAAAAAUGCAGGGGUCUAAAACUGAGCGGAUAACCUCUCUAUGG RNA 2: GGGAAUGGAUCCACAUCUACGAAUUCGUAUCAUCGAGAGGUUAUCCGCUCACCGAGAUCGGAAGAGCACACGU | 59 ± 7 nM
target 1 insU 3' of 15,insU 3' of 4 (mixed) RNA 1: CACCCGUGCAAAAAUGCAGGGGUCUAAAACUGAGCGGAUAACCUCUCUAUGG RNA 2: GGGAAUGGAUCCACAUCUACGAAUUCGUACCAUAGAGUAGGUUAUCCGCUUCACCGAGAUCGGAAGAGCACACGU | 9.6 ± 0.6 nM
target 1 insA 3' of 3,insA 3' of 2 (mixed) RNA 1: CACCCGUGCAAAAAUGCAGGGGUCUAAAACUGAGCGGAUAACCUCUCUAUGG RNA 2: GGGAAUGGAUCCACAUCUACGAAUUCGUACCAUAGAGAGGUUAUCCGCUACAACCGAGAUCGGAAGAGCACACGU | 7.1 ± 0.4 nM
target 1 insA 3' of 12,insG 3' of 1 (mixed) RNA 1: CACCCGUGCAAAAAUGCAGGGGUCUAAAACUGAGCGGAUAACCUCUCUAUGG RNA 2: GGGAAUGGAUCCACAUCUACGAAUUCGUACCAUAGAGAGGAUUAUCCGCUCAGCCGAGAUCGGAAGAGCACACGU | 28.9 ± 3.1 nM
target 1 insC 3' of 18,insG 3' of 8 (mixed) RNA 1: CACCCGUGCAAAAAUGCAGGGGUCUAAAACUGAGCGGAUAACCUCUCUAUGG RNA 2: GGGAAUGGAUCCACAUCUACGAAUUCGUACCAUACGAGAGGUUAUGCCGCUCACCGAGAUCGGAAGAGCACACGU | 53.4 ± 3.3 nM
target 1 C2A,C22G (mixed) RNA 1: CACCCGUGCAAAAAUGCAGGGGUCUAAAACUGAGCGGAUAACCUCUCUAUGG RNA 2: GGGAAUGGAUCCACAUCUACGAAUUCGUAGCAUAGAGAGGUUAUCCGCUAACCGAGAUCGGAAGAGCACACGU | ~80 nM
target 1 C2G,G12U (mixed) RNA 1: CACCCGUGCAAAAAUGCAGGGGUCUAAAACUGAGCGGAUAACCUCUCUAUGG RNA 2: GGGAAUGGAUCCACAUCUACGAAUUCGUACCAUAGAGAGUUUAUCCGCUGACCGAGAUCGGAAGAGCACACGU | 7.14 ± 0.3 nM
target 1 C6A,A14G (mixed) RNA 1: CACCCGUGCAAAAAUGCAGGGGUCUAAAACUGAGCGGAUAACCUCUCUAUGG RNA 2: GGGAAUGGAUCCACAUCUACGAAUUCGUACCAUAGAGGGGUUAUCAGCUCACCGAGAUCGGAAGAGCACACGU | 12.6 ± 0.9 nM
target 1 U3G,G13A (mixed) RNA 1: CACCCGUGCAAAAAUGCAGGGGUCUAAAACUGAGCGGAUAACCUCUCUAUGG RNA 2: GGGAAUGGAUCCACAUCUACGAAUUCGUACCAUAGAGAAGUUAUCCGCGCACCGAGAUCGGAAGAGCACACGU | 5.4 ± 0.8 nM
target 1 insU 3' of 13,insG 3' of 6 (mixed) RNA 1: CACCCGUGCAAAAAUGCAGGGGUCUAAAACUGAGCGGAUAACCUCUCUAUGG RNA 2: GGGAAUGGAUCCACAUCUACGAAUUCGUACCAUAGAGAGUGUUAUCCGGCUCACCGAGAUCGGAAGAGCACACGU | 25 ± 5 nM
target 1 U11C,U19C (mixed) RNA 1: CACCCGUGCAAAAAUGCAGGGGUCUAAAACUGAGCGGAUAACCUCUCUAUGG RNA 2: GGGAAUGGAUCCACAUCUACGAAUUCGUACCACAGAGAGGCUAUCCGCUCACCGAGAUCGGAAGAGCACACGU | ~80 nM
